# According to the RNAGym collection of RNA variant scans (doi:10.1073/pnas.2313332121):
# B1: TPR t1 (parent)
# chain: GACCAAUCUGCCCUCAGAGCUCGAGAACAUCUUCGGAUGCAGAGGAGGCAGGCUUCGGUGGCGCGAUAGCGCCAACGUCCUCAACCUCCAAUGCAUCCCACCACAUGAUGAUGCCUGAAGAGCCUUGGUUUUUUG
# Variants of: B1
# Assay: polymerase ribozyme fitness, log enrichment relative to wild type (log ratio); higher = more active; in vitro selection for triplet polymerase activity
# In short: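 Frozen incubation at −7 °C formed the core of a single, triplicate in vitro selection round applied to PCR-built, transcribed mutant libraries of each subunit of a heterodimeric triplet polymerase ribozyme. Extended constructs were gel-excised, captured with streptavidin beads and amplified by RT-PCR, and input and output libraries were Illumina-sequenced with a filter of ≥10 input reads and ≥1 read per output. Fitness is the logarithm of genotype enrichment relative to wild-type enrichment, with inverse-variance-weighted replicate averaging, and the logarithm is base 2.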
row,Variant,polymerase ribozyme fitness (log ratio)
1,C70U C114A G128U,-4.2
2,C72U G77C C114U,-2.28
3,G71A G120U U126C,-1.26
4,C70U C85A,-2.12
5,C70U C85U,-0.917
6,G71C C85U U92C,-4.52
7,G71U U129A,-1.8
8,G71U U129C,-0.505
9,C70A G113U,-2.82
10,C70U G113A U131A,-0.868
11,C70U G122A U126A,-3.62
12,C72A C82A,0.281
13,C72A C82U,0.305
14,G71A G120C G122A,-1.43
15,G71U C89U C101U C123U G128C,-1.14
16,G71A U130C,0.53
17,C70G G127U,-3.25
18,G71U C124U,1.13
19,C72G G122A,-1
20,C72A C79A C94A G127C,-2.85
21,C72A C85A,0.00801

row,Variant,polymerase ribozyme fitness (log ratio)
1,C72U C101U,-0.522
2,G71C C73U C79G A90U,-6.83
3,G71U U132A,0.382
4,C72A U81C C82A,-1.12
5,C70U G128U U133G,-2.39
6,C72G C97A,-5.43
7,G71A C124U,1.42
8,C70U C80U U96A U106C,-4.08
9,C70A U78C C102U,-4.3
10,G71C C114A,-2.75
11,G71C C114U,-3.55
12,C72G G110C,-2.42
13,C72A C97U,0.226
14,G71A C101A G113U,-5.02
15,C70G G113U,-4.42
16,G71C U112C,-0.487
17,G71C C94A,-4.08
18,C70G C79G C98U U109G U125A,-7.56
19,G71C A84G C104A U109G G117U C124A U130G,-5.84
20,C70U G117C,-4.24
21,G71A C102A,-2.99

row,Variant,polymerase ribozyme fitness (log ratio)
1,C72U U129A,-1.42
2,C72U G107C U109A U130A,-5.31
3,C72A G93A,-0.667
4,C70A G117U A121C U130C,-4.1
5,C70U U116A,-3.33
6,C72A A108U,-5.64
7,C70U U78G U116G,-2.23
8,C72G U96C,-1.25
9,C72G U96A,-2.18
10,G71U A103G,-5.01
11,G71U A103C,-5.76
12,C72U A84U C101A C115U G127A G128C,-6.94
13,G71C G77C C114G U116G,-5.32
14,G71U C114G,-2.81
15,C72A C88U,-0.32
16,C70U C94A,-1.13
17,C70U C94G,-0.729
18,G71C C104A,-3.63
19,C72A A90U C101A G122A,-3.86
20,C72G A90U,-1.11
21,C72U A95C C97U,-2.94

row,Variant,polymerase ribozyme fitness (log ratio)
1,C72G U78G G110U,-2.55
2,G71A A74C A105C,-5.44
3,C72U G120U,-0.256
4,G71U U81G,-4.34
5,G71A C99U,-3.17
6,C70G A100U G117A A118C,-6.05
7,G71U C102U,-1.69
8,C70U C102A,-1.86
9,C73A C104U,0.181
10,C72U U133A,-0.682
11,G71U U92A G93U,-3.61
12,C72U C86U,-0.347
13,C72A C89A U106A,-2.09
14,C70U C76U U106C U133G,-1.64
15,C70U A91C C101U U112A U129C,-6.24
16,G71C G110A,-2.2
17,C70G U78C G120A U130G,-2.19
18,C72U U78C C97A,-4.87
19,C72U C79G,-1.97
20,G71U U81G U112A,-5.24
21,C72U U106C,-0.313
